Assay results as given in article PMC11985968 (Nature Communications, 2025).
Several values for one entry are separate records, joined by “and”; a condition that tells them apart may be missing. Equal entries are not always repeated.

Target: T1, Mycobacterium tuberculosis UvrA (Mycobacterium tuberculosis, UniProt P9WQK7 1-972)
T1 sequence: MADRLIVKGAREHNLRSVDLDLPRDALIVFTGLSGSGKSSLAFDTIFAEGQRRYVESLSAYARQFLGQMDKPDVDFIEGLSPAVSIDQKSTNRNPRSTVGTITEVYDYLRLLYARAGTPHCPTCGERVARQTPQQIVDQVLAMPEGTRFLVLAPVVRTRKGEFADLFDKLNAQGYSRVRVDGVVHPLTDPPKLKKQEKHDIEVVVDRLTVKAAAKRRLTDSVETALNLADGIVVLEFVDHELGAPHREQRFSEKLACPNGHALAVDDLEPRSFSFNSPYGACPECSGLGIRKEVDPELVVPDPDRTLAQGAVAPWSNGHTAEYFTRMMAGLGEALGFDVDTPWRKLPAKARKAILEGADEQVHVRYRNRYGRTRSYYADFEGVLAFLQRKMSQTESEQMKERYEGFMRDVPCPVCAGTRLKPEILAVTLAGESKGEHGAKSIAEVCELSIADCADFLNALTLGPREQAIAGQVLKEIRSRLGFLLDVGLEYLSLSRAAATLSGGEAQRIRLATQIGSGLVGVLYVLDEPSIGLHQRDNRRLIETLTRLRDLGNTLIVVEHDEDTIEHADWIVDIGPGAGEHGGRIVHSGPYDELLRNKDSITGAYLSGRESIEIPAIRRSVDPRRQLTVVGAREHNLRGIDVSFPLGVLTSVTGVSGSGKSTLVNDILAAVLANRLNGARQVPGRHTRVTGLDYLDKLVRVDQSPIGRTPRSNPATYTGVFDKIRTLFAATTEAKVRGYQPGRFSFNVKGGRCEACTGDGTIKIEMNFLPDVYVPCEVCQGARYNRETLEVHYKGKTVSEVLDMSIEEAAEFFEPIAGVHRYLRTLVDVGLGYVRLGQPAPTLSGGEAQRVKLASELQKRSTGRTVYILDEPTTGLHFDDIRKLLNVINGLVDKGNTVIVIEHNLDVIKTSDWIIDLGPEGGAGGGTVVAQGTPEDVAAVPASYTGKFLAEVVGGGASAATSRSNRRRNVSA
Test: cryo-EM structure

B1: Mycobacterium tuberculosis UvrB (enzyme)
chain: VRAGGHFEVVSPHAPAGDQPAAIDELERRINAGERDVVLLGATGTGKSATTAWLIERLQRPTLVMAPNKTLAAQLANELREMLPHNAVEYFVSYYDYYQPEAYIAQTDTYIEKDSSINDDVERLRHSATSALLSRRDVVVVASVSCIYGLGTPQSYLDRSVELKVGEEVPRDGLLRLLVDVQYTRNDMSFTRGSFRVRGDTVEIIPSYEELAVRIEFFGDEIEALYYLHPLTGEVIRQVDSLRIFPATHYVAGPERMAHAVSAIEEELAERLAELESQGKLLEAQRLRMRTNYDIEMMRQVGFCSGIENYSRHIDGRGPGTPPATLLDYFPEDFLLVIDESHVTVPQIGGMYEGDISRKRNLVEYGFRLPSACDNRPLTWEEFADRIGQTVYLSATPGPYELSQTGGEFVEQVIRPTGLVDPKVVVKPTKGQIDDLIGEIRTRADADQRVLVTTLTKKMAEDLTDYLLEMGIRVRYLHSEVDTLRRVELLRQLRLGDYDVLVGINLLREGLDLPEVSLVAILDADKEGFLRSSRSLIQTIGRAARNVSGEVHMYADKITDSMREAIDETERRRAKQIAYNEANGIDPQPLRKKIADILDQVYREADDTAVVEVGGSGRNASRGRRAQGEPGRAVSAGVFEGRDTSAMPRAELADLIKDLTAQMMAAARDLQFELAARFRDEIADLKRELRGMDAAGLK
stoichiometry N: 1 UvrB per UvrA dimer and 2 UvrB per UvrA dimer
